Molecular target: T1, full-length MBP-HS1BP3 (UniProt Q53T59 1-392)
T1 construct: HS1BP3, full length; also called HS1BP3 FL; MBP HS1BP3 full-length WT; source: SoluBL21 E. coli, purified (amylose resin, eluted with 10 mM maltose)
T1 sequence (looked up): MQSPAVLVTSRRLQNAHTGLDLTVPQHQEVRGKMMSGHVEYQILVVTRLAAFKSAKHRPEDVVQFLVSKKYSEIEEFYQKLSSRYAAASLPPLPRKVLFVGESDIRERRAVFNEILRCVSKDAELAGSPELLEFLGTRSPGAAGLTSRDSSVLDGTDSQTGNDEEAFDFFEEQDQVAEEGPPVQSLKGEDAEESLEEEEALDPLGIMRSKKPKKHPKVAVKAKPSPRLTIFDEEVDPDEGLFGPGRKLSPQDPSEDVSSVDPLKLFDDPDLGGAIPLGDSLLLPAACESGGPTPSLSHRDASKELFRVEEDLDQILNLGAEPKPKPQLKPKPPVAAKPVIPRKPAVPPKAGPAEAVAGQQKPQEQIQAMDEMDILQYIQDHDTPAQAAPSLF
Test: pull-down; equal concentrations of GST-SH3 (on glutathione beads) and purified MBP-tagged HS1BP3 proteins incubated 2 h at 4 °C, six washes with GST-buffer, anti-MBP immunoblot
Conditions: both partners purified

B1: GST-SH3 (SH3 domain of cortactin fused to GST) (domain or fragment)
chain: not shown
notes: SH3 domain of cortactin (CTTN); Q14247 amino acids 492-550 are printed only for the SH3 fragment used in the AlphaFold model; Held on glutathione beads as bait; also called GST-SH3 (cortactin); source: SoluBL21 E. coli, purified on Glutathione Sepharose 4B beads
**Q.** Does B1 bind?
**A.** Result: binds

Reference: paper PMC13399123, “Interaction of HS1BP3 with cortactin modulates TKS5 localisation, cell secretion and cancer malignancy” (Molecular Oncology, 2026)
